{"source": "patent US12677828B2", "about": "“Lipid encasing amphipathic peptides” (Kansas State University Research Foundation, priority 2019, dated 2026)", "key": {"M. sexta larvae": {"tested_on": "M. sexta larvae", "assay": "Persistence assay, 3-day and 5-day waiting period before adding larvae", "assay_type": "in vivo, Manduca sexta", "settings": "Novarulon 0.02%; both waiting periods (3-day, 5-day) before adding first instar larvae", "method": "Subsequently, a persistence assay was conducted to see if the LEAP colloidal particles could protect the active ingredient from environmental degradation. Two studies were conducted, one with a 3-day (FIG. 8) and the other with a 5-day (FIG. 9) waiting period before adding the first instar larvae. The methods used to prepare the LEAP colloidal particle encased materials and the preparation of the coated leaves were identical as described above, except that the leaf discs were allowed to sit in the incubator under the previously described conditions outlined above for the designated time period. After the designated waiting period, 1-day old (first instar) M. sexta larvae were place on the treated leaves. Each day the number of dead larvae were counted. Examining FIGS. 8 and 9, it is clear to see that the LEAP colloidal particles containing the active ingredient Novarulon started killing faster than the Novarulon control. […] Since the Novarulon by itself was still active it appears that coating the Novarulon containing oil droplet with the peptide appears to have been ingested more efficiently such that the lethal dose was achieved more rapidly."}, "Aspergillus nidulans": {"tested_on": "Aspergillus nidulans", "assay": "Antifungal activity on spore seeded plates (1% skim milk agar), Example 3", "assay_type": "cell-based", "settings": "0.5% Captan in 1:1 propionic acid/soy oil, applied as mixture alone (label Captan) or encased in the named peptide; 5 to 40 μL spotted", "method": "A 0.5% solution of Captan was prepared in a 1:1 mixture of propionic acid and soy oil (final volume of 10 μL for each peptide). The solution was added to 1 mg of dried peptide. After incubating for 15 min, water (490 μL, pH=3) was added dropwise, then sonicated in a bath sonicator for 5 min at 37° C. and allowed to stand for 20 min. The sample was then centrifuged at room temperature for 10 min at 14K×g. At this point each peptide-lipid complex formed a whitish film on the surface of the water. The volume of water was reduced using a Pipetman leaving a final volume of 150 μL. The solution was again vortexed to resuspend the colloids. An illustration of the colloidal particle with the active ingredient distributed throughout the colloidal body is shown in FIG. 3. A number of different controls were tested along with the peptides prepared with all of the components: soy oil only, soy oil+propionic acid, soy oil+propionic acid+Captan. Volumes of from 5 to 40 μL were spotted on spore seeded plates of Aspergillus nidulans grown on 1% skim milk agar gel) yielding 0.33 and 1.33 μg of active agent delivered, respectively (FIG. 4).\nIn FIG. 4, lawns of A. were seeded just before testing. The actively growing fungus appears greenish yellow in color. For controls (FIG. 5A) soy oil and soy oil+propionic acid (1:1, v/v) were applied directly to the plates at the indicated volumes. […] When the 1:1 soy plus propionic acid was separately encased using the two peptides (FIG. 5B, columns 1 and 2) there was minimal antifungal activity. In FIG. 5C, column 1, Captan was dissolved in the propionic acid prior to mixing with the soy oil."}, "A. nidulans": {"tested_on": "A. nidulans", "assay": "Growth inhibition, Captan alone or LEAP encapsulated at different concentrations, Example 4", "assay_type": "cell-based, Aspergillus nidulans", "settings": "50 μL per plate", "method": "In this example, the effectiveness of Captan alone or encased in a LEAP colloidal particle on A. nidulans growth was compared. Different concentrations of Captan were tested for growth inhibition when applied directly to freshly seeded fungi growing on 1% milk plates or after encapsulation as a colloidal particle with a LEAP (h5F-L). Captan was dissolved in a formulated (1:1:2) solution containing propionic acid, soy oil, and a pesticide synergist, Piperonyl butoxide (PBO). The resulting active solution was diluted to the following concentrations: 1%, 0.1%, 0.05%, 0.01%, 0.005%, 0.001%. A volume of 50 μL of the 1:1:2 solution containing the fungicide was combined with 1 mmole of dry peptide and then allowed to stand for 20 minutes. Deionized water was then added to the colloidal mixture to raise the total volume to 1 mL, followed by sonicating the mixture for 5 minutes, and then incubating for 60-90 minutes. A volume of 50 μL for each test solution was added to the center of each plate (FIG. 6)."}, "[1]": {"settings": "cited from earlier work"}, "[2]": {"tested_on": "leaves of Vicia faba (Fava beans)", "assay": "Effects of formulations sprayed on leaves", "settings": "Vicia faba (fava bean), in vivo, 24 h", "method": "In this study, we looked at the effects of the Captan fungicide formulation with and without the LEAP peptide when applied to the leaves of Vicia faba (Fava beans). Three formulations were prepared for this experiment: […]\nDeionized water was added to each formulation to a final volume 1 mL and allowed to stand at room temperature for 60-90 min. […]"}, "[3]": {"assay": "Average size and zeta potential by light scattering (ZetaPlus), soy oil colloids", "assay_type": "physicochemical", "settings": "peptide colloids in high purity soy oil", "method": "Peptide colloids were prepared with either Ac-FLIVI-KKKKK-CO-NH2 (SEQ ID NO:1, where X is F, “h5F-L”) or Ac-VLIVI-KKKKK-CO-NH2 (SEQ ID NO:1, where X is V, “h5V-L”), in high purity soy oil were tested for average size and zeta potential (surface charge) using light scattering on a ZetaPlus particle sizing instrument. A control was prepared using high purity soy oil mixed with water and sonicated."}, "[4]": {"assay": "Resizing by extrusion through 100 nm polycarbonate filters", "assay_type": "physicochemical", "settings": "extruded through 100 nm polycarbonate filters", "text": "Given that particle sizes for both peptides were above the nanoscale cutoff of 100 nm, the samples were subjected to resizing by extruding them through 100 nm polycarbonate filters. The […]-L particles were resized to about 80 nm after extrusion (data not shown). The […]-L particles could be resized to about 90 nm."}, "[5]": {"assay": "Dynamic light scattering of LEAP alone in water (micelles)", "assay_type": "physicochemical", "settings": "1 mg peptide in water, no excipient", "method": "One mg of the LEAP (Ac-FLIVIKKKK-CONH2, SEQ ID NO:1, where X is F) was dissolved in 500 μL of DDI-RO water. The solution was sonicated for 10 min then allowed to rest at room temperature for approximately 60 min. This solution was further diluted to 10 mL with DDI-RO water prior to dynamic light scattering analysis. Light scattering data was recorded using an Anton-Parr Litesizer 500 instrument and processed using the proprietary ‘Kalliope’ analysis software. The DLS calculations indicated particles with a hydrodynamic diameter of 928.3 nm with peak numerical intensity at 120.09 nm and a polydispersity index of 229.1%."}, "[6]": {"assay": "Encapsulation of soy oil containing Nile Red dye by peptide", "assay_type": "physicochemical", "settings": "22 μL soy oil with Nile Red, 480 μL water", "method": "(§1) Initial encapsulation studies were carried out using high purity soy oil containing a lipid soluble dye, Nile Red. Studies were carried out using FLIVI-KKKKK (SEQ ID NO:1, where X is F). Increasing concentrations of the peptide (see FIG. 2) were prepared in Trifluoroethanol and dried in vacuo. To each tube, 22 μL of soy oil containing Nile Red dye (1 mg/mL) was added and allowed to stand for 15 min. Distilled/deionized water (480 μL) was then added and mixed repeatedly using a vortex mixer over a period of at least 5 min. The solution became somewhat cloudy as the dye containing colloids formed at the higher peptide concentrations. 25% was encapsulated at 0.5 mM peptide concentration with 80% encapsulated by the 1 mM peptide concentration. The colloids formed using the FLIVI-KKKKK (SEQ ID NO:1, where X is F) sequence remain stable in a water solution for extended periods of time (at least 12 months)."}, "[7]": {"assay": "Stability of colloids in water solution", "assay_type": "physicochemical", "settings": "soy oil colloids", "method": "as §1"}}, "data": [{"compound": "1-[3-chloro-4-phenyl]-3-urea [Novarulon]", "values": [{"measurement": "killing of larvae", "setting": "M. sexta larvae", "value": "still active"}]}, {"compound": "O=C1[C@H]2CC=CC[C@H]2C(=O)N1SC(Cl)(Cl)Cl", "note": "[Captan, (3aR,7aS)-2-[(Trichloromethyl)sulfanyl]-3a,4,7,7a-tetrahydro-1H-isoindole-1,3(2H)-dione]", "values": [{"measurement": "antifungal activity", "setting": "Aspergillus nidulans", "value": "not very effective"}, {"measurement": "growth inhibition", "setting": "A. nidulans; 0.1% concentration", "value": "only slight inhibition"}, {"measurement": "growth inhibition", "setting": "A. nidulans; highest concentration (1%), propionic acid, soy oil, PBO (1:1:2)", "value": "strong growth inhibition"}, {"measurement": "solubility in propionic acid", "setting": "[1]; C3 organic acid, propionic acid", "value": "good solubility"}, {"measurement": "solubility in water relative to acetone and xylene (fold less)", "setting": "[1]; water vs acetone, xylene", "value": 4000, "unit": "fold"}]}, {"compound": "CCC(=O)O", "note": "[propionic acid]", "values": [{"measurement": "leaf damage", "setting": "[2]", "value": "black spots on the leaves after 24 hr"}]}, {"compound": "Ac-FLIVI-KKKKK-CO-NH2 (Ac-FLIVIKKKKK-NH2) [h5F-L, lipid encasing amphipathic peptide]", "values": [{"measurement": "GSD", "setting": "[3]", "value": "GSD 1.618"}, {"measurement": "Median Diam.", "setting": "[3]", "value": "Median Diam. 363.8 nm"}, {"measurement": "zeta potential", "setting": "[3]", "value": "46±2.5", "unit": "mV"}, {"measurement": "particle size after extrusion", "setting": "[4]", "value": "about 80 nm"}, {"measurement": "antifungal activity", "setting": "Aspergillus nidulans", "value": "complete growth inhibition"}, {"measurement": "peak numerical intensity", "setting": "[5]", "value": 120.09, "unit": "nm"}, {"measurement": "polydispersity index", "setting": "[5]", "value": 229.1, "unit": "%"}, {"measurement": "hydrodynamic diameter", "setting": "[5]; diluted to 10 mL", "value": 928.3, "unit": "nm"}]}, {"compound": "Ac-VLIVI-KKKKK-CO-NH2 (Ac-VLIVIKKKKK-NH2) [h5V-L, lipid encasing amphipathic peptide]", "values": [{"measurement": "GSD", "setting": "[3]", "value": "GSD 1.528"}, {"measurement": "Median Diam.", "setting": "[3]", "value": "Median Diam. 216.5 nm"}, {"measurement": "zeta potential", "setting": "[3]", "value": "43±1.6", "unit": "mV"}, {"measurement": "particle size after extrusion", "setting": "[4]", "value": "about 90 nm"}, {"measurement": "antifungal activity", "setting": "Aspergillus nidulans", "value": "a small amount of antifungal activity"}]}, {"compound": "FLIVI-KKKKK (XLIVIKKKKK; (1)..(1) X is F or V)", "values": [{"measurement": "encapsulated", "setting": "[6]; 0.5 mM peptide concentration", "value": 25, "unit": "%"}, {"measurement": "encapsulated", "setting": "[6]; 1 mM peptide concentration", "value": 80, "unit": "%"}, {"measurement": "colloids remain stable in a water solution", "setting": "[7]", "value": "at least 12 months"}]}]}
